Like-named read-outs stand apart in the source and are kept apart here.
T1: mouse CD47 (mCD47) expressed on CHO cells (mouse, UniProt Q61735 19-303)
T1 construct: whole, on cells; also called CHO-mCD47
T1 sequence (looked up): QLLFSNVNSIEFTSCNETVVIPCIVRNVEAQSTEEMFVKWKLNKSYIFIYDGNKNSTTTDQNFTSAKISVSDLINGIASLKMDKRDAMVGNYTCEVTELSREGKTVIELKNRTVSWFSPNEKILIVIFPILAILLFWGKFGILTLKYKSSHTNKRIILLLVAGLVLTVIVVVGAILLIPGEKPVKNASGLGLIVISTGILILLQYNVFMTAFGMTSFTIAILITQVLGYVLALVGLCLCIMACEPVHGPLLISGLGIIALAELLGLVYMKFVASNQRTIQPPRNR


How the values were obtained:
[1] = target: T2, human CD47 (hCD47) expressed on cells (human, UniProt Q08722 19-323); assay: flow cytometry, Raji cells
T2 construct: Transfected CHO cells or endogenous CD47 of human cells; also called CHO-hCD47; CD47 on Raji cells
Method: Raji cells (ATCC-CLL-86; 2×10⁵ cells/well of 96-well plate) were first incubated at +4° C. for 30 minutes with serial dilutions of anti-CD47 antibodies or control isotype antibody (in mIgG2a or mIgG1 format). The cells were then washed and incubated for 30 minutes at +4° C. with a PE-conjugated F(ab)′2 goat anti-mouse IgG antibody ( 1/100 dilution, Beckman Coulter). After washings, the fluorescence of the cells was analyzed by flow cytometry on an Accuri-C6 flow cytometer (BD Biosciences).
The delta of MFI, representing the difference between the intensity measured with the tested antibody and the intensity in the absence of antibody, was calculated for each antibody concentration and the values were plotted against the antibody concentrations. The EC50 values were then calculated by using a nonlinear regression analysis model of the GraphPad Prism software.

[2] = target: T3, hu-sCD47-6His; extracellular domain of human CD47 antigen with 6His-tag (human); assay: SPR Biacore T200, antibody captured, hCD47-his analyte;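 further: antibodies captured on anti-IgG (Fc) CM5 chip, five sequential 10 min antigen injections at rising concentrations, reference flow cell and antigen-free cycle as controls, 1:1 model fit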
T3 construct: also called hCD47-his; soluble hCD47
From the text: (§1) An anti-human or anti-mouse IgG (Fc) was first immobilized on the surface of Serie S Sensor Chips CM5 using the human or mouse antibody capture and amine coupling kits, following the manufacturer's instructions (GE Healthcare). […] The mouse, chimerized or humanized antibodies to be tested were then captured onto the appropriate anti-mouse or anti-human IgG surface in all flow cells except flow cell 1 used as control, at concentration and contact time adjusted so that ˜300 RU were captured on the surface. Binding kinetics were studied by passing increasing concentrations of hCD47-his in a series of five 10 minute injections through all flow cells at a rate of 30 μL/min. […] Following the final injection, buffer was passed across each flow cell for 60 minutes (mouse) or 30 minutes (human) to monitor the dissociation of bound antigen. Regeneration of the binding surface was carried out at the end of the cycle by flowing 3 M MgCl₂ for 60 s at 20 μL/min followed by 10 mM glycine-HCl, pH 1.7 for 180 s at 10 μl/min (for human) or by flowing 10 mM glycine-HCl, ph 1.7 for 360 s at 10 μl/min (for mouse). A second cycle with the same antibodies but no antigen was run as a control. Kinetics binding constants were estimated by non-linear fitting of the sensogram data to the 1:1 binding model provided by the Biacore T200 evaluation software.

[3] = target: T2, human CD47 (hCD47) expressed on cells; assay: cell-based or functional assay
[4] = target: T2, human CD47 (hCD47) expressed on cells; assay: flow cytometry, hCD47-CHO cells, competition with His-hSIRPα
Method: Human CD47-transfected cells (3×10⁵ cells/well of 96-well plate) were first incubated at +4° C. for 30 minutes with serial dilutions of anti-CD47 antibodies or isotype control antibody (in mIgG2a or mIgG1 format). […] The percentage inhibition was plotted against antibody concentration and the IC50 values were calculated using a nonlinear regression analysis model of the GraphPad Prism software.

[5] = target: T2, human CD47 (hCD47) expressed on cells; assay: flow cytometry, Raji cells; remark: listed apart in the source
[6] = target: T3, hu-sCD47-6His; extracellular domain of …; assay: SPR Biacore;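 further: antibodies captured on anti-IgG CM5 chip, soluble His-tagged human CD47 flowed over at rising concentrations, five 10 min injections, flow cell 1 as reference, 1:1 model fit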
From the text: as §1

[7] = target: T1, mouse CD47 (mCD47) expressed on CHO …; assay: flow cytometry, CHO-mCD47 cells (not shown)
[8] = target: T3, hu-sCD47-6His; extracellular domain of …; assay: SPR Biacore; head read as x 10^-4;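 on Kd: antibodies captured on anti-IgG CM5 chip, soluble His-tagged human CD47 flowed over at rising concentrations, five 10 min injections, flow cell 1 as reference, 1:1 model fit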;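 on kon: antibodies captured on anti-IgG CM5 chip, soluble His-tagged human CD47 flowed over at rising concentrations, five 10 min injections, flow cell 1 as reference, 1:1 model fit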
From the text: as §1

[9] = target: T2, human CD47 (hCD47) expressed on cells; assay: flow cytometry, Raji cells, competition with hSIRPα

Binder | EC50 [1] | Kd [2] | koff [2] | kon [2] | Phagocytic index, Raji cells and human macrophages, antibody at 0.125 µg/mL [3] | IC50 [4] | EC50 [5] | Kd [6] | kon [6] | binding result [7] | koff [8] | IC50 [9]
5A3M3 (mouse antibody from Novimmune) (antibody, V domains shown) VH: not shown VL: DIQMTQSPSSLSASVGDRVTITCQASQSISSYLNWYQQKPGKAPKLLIYAASSLETGVPSRFSGSGSGTDFTFTISSLQPEDIATYYCQQKHPRGPRTFGQGTKVEIKR | 0.301 µg/mL |  |  |  |  |  |  |  |  |  |  | 
B6H12 (mouse IgG1, Abcam) (antibody, V domains shown) VH: EVQLVESGGDLVKPGGSLKLSCAASGFTFSGYGMSWVRQTPDKRLEWVATITSGGTYTYYPDSVKGRFTISRDNAKNTLYLQIDSLKSEDTAIYFCARSLAGNAMDYWGQGTSVTVSS VL: DIVMTQSPATLSVTPGDRVSLSCRASQTISDYLHWYQQKSHESPRLLIKFASQSISGIPSRFSGSGSGSDFTLSINSVEPEDVGVYYCQNGHGFPRTFGGGTKLEIK |  | 5.14 nM | 6.59e-05 s⁻¹ | 12900 M⁻¹ s⁻¹ |  |  |  |  |  |  |  | 
2A1 (mouse antibody from Inhibrx) (antibody, V domains shown) VH: EVQLQQSGAELVRSGASVKLSCTASGFNIKDYYLHWVKQRPEQGLEWIGWIDPDNGDTEFAPKFQGKATMTADTSSNTAYLQLSSLTSEDTAVYYCNAAYGSSSYPMDYWGQGTSVTV VL: DIKMTQSPSSLYASLGERVTITCKASQDIHRYLSWFQQKPGKSPKILIYRANRLVDGVPSRFSGSGSGQDYSLTISSLEYEDMGIYYCLQYDEFPYTFGGGTKLEMK | 0.058 µg/mL | 0.127 nM | 4.99e-05 s⁻¹ | 401000 M⁻¹ s⁻¹ | 113 Raji cells ingested per 100 macrophages | 0.739 µg/mL |  |  |  |  |  | 
h20-VH2-VL3 (candidate 20.8) (antibody, human IgG4 S228P, kappa, V domains shown, hIgG4-S228P/kappa; also called h20-H2-L3) VH: QVQLVQSGAEVKKPGASVKVSCKASGYSFTDYYINWVRQAPGQGLEWMGRIYPGIGNTYYNKKFKGRVTITRDTSASTAYMELSSLRSEDTAVYYCARGHYGRGMDYWGQGTLVTVSS VL: EIVLTQSPDSLAVSLGERATINCKSSQSLLNSIDQKNYLAWYQQKAGQSPKLLIYFASTKESGVPDRFSGSGSGTDFTLTIDSLQAEDVAVYYCQQHYSTPWTFGGGTKVEIKR |  |  |  |  |  |  | 0.184 µg/mL | 3.65 nM | 189000 M⁻¹ s⁻¹ | no binding | 0.000628 s⁻¹ | 0.079 µg/mL
h20-VH1-VL4 (candidate 20.4) (antibody, human IgG4 S228P, kappa, V domains shown, hIgG4-S228P/kappa; also called h20-H1-L4) VH: QVQLLESGAVLARPGTSVKISCKASGYSFTDYYINWVKQRPGQGLEWIGRIYPGIGNTYYNKKFKGRAKLTAATSASIAYLEFSSLTNEDSAVYYCARGHYGRGMDYWGQGTLVTVSS VL: DIVMTQSPDSLAVSLGERATINCKSSQSLLNSIDQKNYLAWYQQKPGQPPKLLIYFASTKESGVPDRFSGSGSGTDFTLTISSLQAEDVAVYFCQQHYSTPWTFGGGAKVEIKR |  |  |  |  |  |  | 0.248 µg/mL | 7.58 nM | 126000 M⁻¹ s⁻¹ | no binding | 0.000772 s⁻¹ | 0.261 µg/mL
h20-VH1-VL3 (candidate 20.3) (antibody, human IgG4 S228P, kappa, V domains shown, hIgG4-S228P/kappa; also called h20-H1-L3) VH: QVQLLESGAVLARPGTSVKISCKASGYSFTDYYINWVKQRPGQGLEWIGRIYPGIGNTYYNKKFKGRAKLTAATSASIAYLEFSSLTNEDSAVYYCARGHYGRGMDYWGQGTLVTVSS VL: EIVLTQSPDSLAVSLGERATINCKSSQSLLNSIDQKNYLAWYQQKAGQSPKLLIYFASTKESGVPDRFSGSGSGTDFTLTIDSLQAEDVAVYYCQQHYSTPWTFGGGTKVEIKR |  |  |  |  |  |  | 0.184 µg/mL | 7.33 nM | 131000 M⁻¹ s⁻¹ | no binding | 0.000839 s⁻¹ | 0.228 µg/mL
h20-VH3-VL5 (candidate 20.15) (antibody, human IgG4 S228P, kappa, V domains shown, hIgG4-S228P/kappa; also called h20-H3-L5) VH: QVQLVQSGAEVKKPGASVKVSCKASGYSFTDYYINWVRQAPGQGLEWMGRIYPGIGNTYYNKKFKGRVTVTRDTSISTAHMELSSLRSDDTAVYYCARGHYGRGMDYWGQGTAVTVSS VL: DIVMTQSPDSLAVSLGERATINCKSSQSLLNSIDQKNYLAWYQQKPGQPPKLLIYFASTKESGVPDRFSGSGSGTDFTLTISGLQAEDVAVYFCQQHYSTPWTFGGGTKVEIRR |  |  |  |  |  |  | 0.143 µg/mL | 2.36 nM | 242000 M⁻¹ s⁻¹ | no binding | 0.000528 s⁻¹ | 0.113 µg/mL
h20-VH1-VL5 (candidate 20.5) (antibody, human IgG4 S228P, kappa, V domains shown, hIgG4-S228P/kappa; also called h20-H1-L5) VH: QVQLLESGAVLARPGTSVKISCKASGYSFTDYYINWVKQRPGQGLEWIGRIYPGIGNTYYNKKFKGRAKLTAATSASIAYLEFSSLTNEDSAVYYCARGHYGRGMDYWGQGTLVTVSS VL: DIVMTQSPDSLAVSLGERATINCKSSQSLLNSIDQKNYLAWYQQKPGQPPKLLIYFASTKESGVPDRFSGSGSGTDFTLTISGLQAEDVAVYFCQQHYSTPWTFGGGTKVEIRR |  |  |  |  |  |  | 0.206 µg/mL | 3.53 nM | 198000 M⁻¹ s⁻¹ | no binding | 0.000595 s⁻¹ | 0.111 µg/mL

More lines, now with the values ahead:

EC50 [1] | Kd [2] | koff [2] | kon [2] | Phagocytic index, Raji cells and human macrophages, antibody at 0.125 µg/mL [3] | IC50 [4] | EC50 [5] | Kd [6] | kon [6] | binding result [7] | koff [8] | IC50 [9] | Binder
0.055 µg/mL | 3.85 nM | 0.00337 s⁻¹ | 874000 M⁻¹ s⁻¹ | 78.9 Raji cells ingested per 100 macrophages | 0.737 µg/mL |  |  |  |  |  |  | Candidate 14 (VT008-AL6-14G1-16K1), mouse IgG (antibody, V domains shown, Recombinant mouse IgG2a or mIgG1 format, by assay) VH: QVQLQQPGAELVKPGASLRVSCKASGYTFTNYWMYWVRQRPGRGLEWIGWIDPNSGGTKYNEKFKSKATLTVDKPSSTAYMQLSSLTSEDSAVYNCARGGYTMDYWGQGTSVTVSS VL: DVVMTQTPLSLPVSLGDQASISCRASQSLVHSNGNTYLHWYLQKPGQSPKLLIYKVSNRFSGVPDRFSGSGSGTDFTLKISRVEAEDLGVYFCSQSTHVPLTFGAGTKLELK
 |  |  |  |  |  | 0.19 µg/mL | 9.93 nM | 104000 M⁻¹ s⁻¹ | no binding | 0.000841 s⁻¹ | 0.169 µg/mL | h20-VH5-VL3 (candidate 20.23) (antibody, human IgG4 S228P, kappa, V domains shown, hIgG4-S228P/kappa; also called h20-H5-L3) VH: QVQLVQSGAEVKKPGASVKVSCKASGYSFTDYYINWVRQAPGQGLEWMGRIYPGIGNTYYNKKFKGRVTMTRYTSISTAYMELSRLRSDDTAVYFCARGHYGRGMDYWGQGTTVTVSS VL: EIVLTQSPDSLAVSLGERATINCKSSQSLLNSIDQKNYLAWYQQKAGQSPKLLIYFASTKESGVPDRFSGSGSGTDFTLTIDSLQAEDVAVYYCQQHYSTPWTFGGGTKVEIKR
 |  |  |  |  |  | 0.164 µg/mL | 4.37 nM | 180000 M⁻¹ s⁻¹ | no binding | 0.000733 s⁻¹ | 0.142 µg/mL | h20-VH4-VL3 (candidate 20.18) (antibody, human IgG4 S228P, kappa, V domains shown, hIgG4-S228P/kappa; also called h20-H4-L3) VH: QVQLVQSGAEVKKPGSSVKVSCKASGYSFTDYYINWVRQAPGQGLEWMGRIYPGIGNTYYNKKFKGRVTITADKSTSTAYMELSSLRSEDTAVYYCARGHYGRGMDYWGQGTTVTVSS VL: EIVLTQSPDSLAVSLGERATINCKSSQSLLNSIDQKNYLAWYQQKAGQSPKLLIYFASTKESGVPDRFSGSGSGTDFTLTIDSLQAEDVAVYYCQQHYSTPWTFGGGTKVEIKR
 |  |  |  |  |  | 0.173 µg/mL | 3.34 nM | 219000 M⁻¹ s⁻¹ | no binding | 0.000632 s⁻¹ | 0.123 µg/mL | h20-VH2-VL4 (candidate 20.9) (antibody, human IgG4 S228P, kappa, V domains shown, hIgG4-S228P/kappa; also called h20-H2-L4) VH: QVQLVQSGAEVKKPGASVKVSCKASGYSFTDYYINWVRQAPGQGLEWMGRIYPGIGNTYYNKKFKGRVTITRDTSASTAYMELSSLRSEDTAVYYCARGHYGRGMDYWGQGTLVTVSS VL: DIVMTQSPDSLAVSLGERATINCKSSQSLLNSIDQKNYLAWYQQKPGQPPKLLIYFASTKESGVPDRFSGSGSGTDFTLTISSLQAEDVAVYFCQQHYSTPWTFGGGAKVEIKR
 |  |  |  |  |  | 0.159 µg/mL | 9.69 nM | 126000 M⁻¹ s⁻¹ | no binding | 0.00109 s⁻¹ | 0.112 µg/mL | h20-VH5-VL5 (candidate 20.25) (antibody, human IgG4 S228P, kappa, V domains shown, hIgG4-S228P/kappa; also called h20-H5-L5) VH: QVQLVQSGAEVKKPGASVKVSCKASGYSFTDYYINWVRQAPGQGLEWMGRIYPGIGNTYYNKKFKGRVTMTRYTSISTAYMELSRLRSDDTAVYFCARGHYGRGMDYWGQGTTVTVSS VL: DIVMTQSPDSLAVSLGERATINCKSSQSLLNSIDQKNYLAWYQQKPGQPPKLLIYFASTKESGVPDRFSGSGSGTDFTLTISGLQAEDVAVYFCQQHYSTPWTFGGGTKVEIRR
 |  |  |  |  |  | 0.177 µg/mL | 11 nM | 103000 M⁻¹ s⁻¹ | no binding | 0.00102 s⁻¹ | 0.133 µg/mL | h20-VH5-VL4 (candidate 20.24) (antibody, human IgG4 S228P, kappa, V domains shown, hIgG4-S228P/kappa; also called h20-H5-L4) VH: QVQLVQSGAEVKKPGASVKVSCKASGYSFTDYYINWVRQAPGQGLEWMGRIYPGIGNTYYNKKFKGRVTMTRYTSISTAYMELSRLRSDDTAVYFCARGHYGRGMDYWGQGTTVTVSS VL: DIVMTQSPDSLAVSLGERATINCKSSQSLLNSIDQKNYLAWYQQKPGQPPKLLIYFASTKESGVPDRFSGSGSGTDFTLTISSLQAEDVAVYFCQQHYSTPWTFGGGAKVEIKR
 |  |  |  |  |  | 0.143 µg/mL | 3.02 nM | 216000 M⁻¹ s⁻¹ | no binding | 0.000581 s⁻¹ | 0.135 µg/mL | h20-VH3-VL4 (candidate 20.14) (antibody, human IgG4 S228P, kappa, V domains shown, hIgG4-S228P/kappa; also called h20-H3-L4) VH: QVQLVQSGAEVKKPGASVKVSCKASGYSFTDYYINWVRQAPGQGLEWMGRIYPGIGNTYYNKKFKGRVTVTRDTSISTAHMELSSLRSDDTAVYYCARGHYGRGMDYWGQGTAVTVSS VL: DIVMTQSPDSLAVSLGERATINCKSSQSLLNSIDQKNYLAWYQQKPGQPPKLLIYFASTKESGVPDRFSGSGSGTDFTLTISSLQAEDVAVYFCQQHYSTPWTFGGGAKVEIKR
